Three molecules from patent publication US20190099470A1 (UNIVERSITY OF VERMONT AND STATE AGRICULTURAL COLLEGE, published 2019) can be followed below.

B2: Homo sapiens mitochondrial antiviral signaling protein (MAVS), endogenous wild-type, as oligomers in human PBMC and in plasma of SLE patients (other)
chain: PFAEDKTYKYICRNFSNFCNVDVVEILPYLPCLTARDQDRLRATCTLSGNRDTLWHLFNTLQRRPGWVEYFIAALRGCELVDLADEVASVYQSYQPRTSDRPPDPLEPPSLPAERPGPPTPAAAHSIPYNSCREKEPSYPMPVQETQAPESPGENSEQALQTLSPRAIPRNPDGGPLESSSDLAALSPLTSSGHQEQDTELGSTHTAGATSSLTPSRGPVSPSVSFQPLARSTPRASRLPGPTGSVVSTGTSFSSSSPGLASAGAAEGKQGAESDQAEPIICSSGAEAPANSLPSKVPTTLMPVNTVALKVPANPASVSTVPSKLPTSSKPPGAVPSNALTNPAPSKLPINSTRAGMVPSKVPTSMVLTKVSASTVPTDGSSRNEETPAAPTPAGATGGSSAWLDSSSENRGLGSELSKPGVLASQVDSPFSGCFEDLAISASTSLGMGPCHGPEENEYKSEGTFGIHVAENPSIQLLEGNPGPPADPDGGPRPQADRKFQEREVPCHRPSPGALWLQVAVTGVLVVTLLVVLYRRRLH
notes: Endogenous protein from donors; In some experiments labelled with Alx488 or Alx546; also called MAVS-WT; SLE MAVS oligomers
B3: His-tagged human MAVS-C79F expressed in MAVS-deficient MEFs (other, not shown: small tags and cut ends)
chain: MPFAEDKTYKYICRNFSNFCNVDVVEILPYLPCLTARDQDRLRATCTLSGNRDTLWHLFNTLQRRPGWVEYFIAALRGFELVDLADEVASVYQSYQPRTSDRPPDPLEPPSLPAERPGPPTPAAAHSIPYNSCREKEPSYPMPVQETQAPESPGENSEQALQTLSPRAIPRNPDGGPLESSSDLAALSPLTSSGHQEQDTELGSTHTAGATSSLTPSRGPVSPSVSFQPLARSTPRASRLPGPTGSVVSTGTSFSSSSPGLASAGAAEGKQGAESDQAEPIICSSGAEAPANSLPSKVPTTLMPVNTVALKVPANPASVSTVPSKLPTSSKPPGAVPSNALTNPAPSKLPINSTRAGMVPSKVPTSMVLTKVSASTVPTDGSSRNEETPAAPTPAGATGGSSAWLDSSSENRGLGSELSKPGVLASQVDSPFSGCFEDLAISASTSLGMGPCHGPEENEYKSEGTFGIHVAENPSIQLLEGNPGPPADPDGGPRPQADRKFQEREVPCHRPSPGALWLQVAVTGVLVVTLLVVLYRRRLH
notes: Expressed from vector pIRES in MAVS-KO MEFs; also called C79F variant; MAVS-C79F SNP

In series [1] the target is B2. Briefly: purified plasma oligomers incubated with purified mitochondria of MAVS-WT MEFs, mitochondria re-purified; immunoblot.
Series [2] deals with the molecule itself. The experiment in a line: self-oligomerization in human PBMC from healthy donors; semi-denaturing agarose gel and immunoblot.
Series [3] addresses T1, His-tagged human MAVS-WT expressed in MAVS-deficient MEFs (human, UniProt Q7Z434 1-540, limits assumed).
T1 construct: also called His-tagged human WT MAVS; not shown: N-terminal His-tag
The experiment in a line: plasma oligomers incubated with mitochondria of MAVS-KO MEFs expressing His-tagged human MAVS-WT; anti-His immunoblot.

Series [4] concerns the target B3. The experiment in a line: plasma oligomers incubated with mitochondria of MAVS-KO MEFs expressing His-tagged human MAVS-C79F; anti-His immunoblot.
Series [5] concerns the molecule itself. The experiment in a line: self-oligomerization in reconstituted MAVS-KO MEFs; semi-denaturing TGX gel and immunoblot.

B1: Mouse MAVS, endogenous, on mitochondria of wild-type MEFs and BMDCs (other, UniProt Q8VCF0 1-503, looked up)
chain: MTFAEDKTYKYIRDNHSKFCCVDVLEILPYLSCLTASDQDRLRASYRQIGNRDTLWGLFNNLQRRPGWVEVFIRALQICELPGLADQVTRVYQSYLPPGTSLRSLEPLQLPDFPAAVSGPSAFAPGHNIPDHGLRETPSCPKPVQDTQPPESPVENSEQLLQTNSGAVARMSGGSLIPSPNQQALSPQPSREHQEQEPELGGAHAANVASVPIATYGPVSPTVSFQPLPRTALRTNLLSGVTVSALSADTSLSSSSTGSAFAKGAGDQAKAATCFSTTLTNSVTTSSVPSPRLVPVKTMSSKLPLSSKSTAAMTSTVLTNTAPSKLPSNSVYAGTVPSRVPASVAKAPANTIPPERNSKQAKETPEGPATKVTTGGNQTGPNSSIRSLHSGPEMSKPGVLVSQLDEPFSACSVDLAISPSSSLVSEPNHGPEENEYSSFRIQVDESPSADLLGSPEPLATQQPQEEEEHCASSMPWAKWLGATSALLAVFLAVMLYRSRRLAQ
notes: Endogenous full protein on the outer mitochondrial membrane of mouse cells; also called MAVS-WT (MEF); endogenous MAVS
As to B1, the binding result in series [1] is listed as “binds”.
For the molecule B2, the binding result in series [2], in series [3] and in series [4] was “binds” each time.
For B3, in series [5], the binding result was “binds”.
